According to patent US20090312252A1, “Antimicrobial Activity in Variants of Lacritin” (priority 2006, published 2009):
Where no end group is shown, it is not given here.

Assays:
E. coli (ATCC #10536) = assay type: cell-based; settings: colony forming unit assay, phosphate buffer, 37°C; by extrapolation of concentration curves
Experimental: (§1) Antimicrobial Assays. The antimicrobial activities were tested using a colony forming unit assay. E. coli (ATCC #10536) was grown in LB medium at 37° C. to an OD600 of 0.5. The cells were washed 3 times in phosphate buffer (pH 7.2) and resuspended in 1 ml of the same buffer. The cells were then diluted 1:100 using two 10 fold serial dilutions. Following dilutions, 50 μl of cells were incubated with 100 μl of sample protein and 350 μl of phosphate buffer at 37° C. In place of sample protein, 100 μl of 10 mM phosphate buffered saline (pH 7.4) was used as the control sample. Following incubation, the cells were diluted 1:10 before plating 100 μl-200 μl in quadruplicates. The plates were incubated overnight at 37° C. and colony forming units were counted. The percentage of cell death was expressed using the following equation, [1-(cells surviving peptide)/(average colonies counted from PBS control)]×100%. The LC50 is defined as the lethal concentration of peptide required to kill 50 percent of the present bacteria and was determined for each Lacritin variant by extrapolation of concentration curves.
Lethal concentrations (μg/ml) of lacritin constructs required to kill 50 percent of E. coli in the antimicrobial assay. Lacritin is full length mature lacritin without signal peptide. N-XX denotes the number of amino acids removed from the N-terminal of mature lacritin and C-XX denotes the number of amino acids removed from the C-terminal of mature lacritin.

[1] = tested on: human salivary gland cells; settings: recombinant lacritin produced in bacteria; cultured human salivary gland cells; cited from earlier work
E. coli = assay: Antimicrobial activity assay, colony forming units after incubation with E. coli (Example 2, FIGS. 4 and 5); assay type: cell-based; settings: for average colony forming units / CFU as % of the control: four hours incubation at 37°C; for % of the bacteria killed: four hours incubation
Experimental: Purified recombinant lacritin variant proteins were assayed for antimicrobial activity by standard methods that involves an incubation period with actively growing bacteria and the protein of interest followed by plating on agar plates supplemented with growth media. The agar plates are incubated overnight and individual colonies are counted and expressed as Colony Forming Units (CFUs). The number of CFUs can be compared to the same bacteria incubated without protein.
E. coli at exponential growth (OD600=0.5) were washed twice in Phosphate Buffer (PB) diluted to a concentration of 1×10^6 cells/ml in PB and incubated with PB (no protein) or test proteins at 37° C. Samples were diluted and plated in triplicate on LB plates after four hours of incubation. Plates were grown at 37° C. overnight and counted. Colony counts were averaged and plotted as CFU/ml×10^3. The incubation volume was 0.5 ml at 25 mM NaCl.
C-25 was tested at a concentration of 53 μg/ml and N-71 was tested at various concentrations in μg/ml as shown in parentheses. pLAC is full length recombinant mature lacritin, and was tested at a concentration of 46 μg/ml. Bacteria incubated with buffer alone (the control) produced an average of 77×10^3 CFU/ml. Incubation with the lacritin variant C-25 produced an average of 79×10^3 or 103% of the control. […] The full-length recombinant lacritin protein (PLAC) produced an average of 38×10^3 CFU/ml or 49% of the control. The variant protein N-71 produced a concentration dependent antimicrobial activity that was less than 1% of the control at a concentration of 28 μg/ml.
The variant lacritin proteins were tested at the concentrations shown in parentheses in μg/ml. Bacteria incubated with buffer alone (the PB control) produced an average of 161×10^3 CFU/ml. Incubation with the lacritin variant N-24 produced an average of 108×10^3 or […] of the control. […] The variant protein N-35 produced an average of 25×10^3 CFU/ml or 16% of the control and the variant N-45 produced an average of 42×10^3 CFU/ml or 26% of the control. These variants are active in antimicrobial activity killing 84% and 74% respectively of the bacteria under the conditions tested. The variant N-55 produced an average of 2×10^3 CPU/ml or 0.01% of the control, the variant N-65 produced an average of 6×10^3 CFU/ml or 0.04% of the control, and the variant N-71 produced an average of 1×10^3 CFU/ml or 0.01% of the control.

E. coli ML-35 = assay: Inner membrane permeabilization, ONPG conversion by cytoplasmic β-galactosidase (FIG. 11); assay type: cell-based; settings: 30 μg/ml; room temperature, 18 hours
Experimental: Inner Membrane Permeabilization. To examine the affect of Lacritin constructs on the inner membrane of gram negative bacteria, an enzymatic assay was conducted using a strain of permease-deficient E. coli, designated E. coli ML-35 (ATCC #43827) which also constitutively produces cytoplasmic βeta-galactosidase. E. coli ML-35 were grown in LB medium for 20 hours at 37° C. as a saturated overnight and then diluted with LB to an absorbance OD600 of 0.5. The cells were washed 3 times in 10 mM sodium phosphate buffer-10 mM NaCl (pH 7.2) and resuspended in 1 ml of the same buffer. The cells were then diluted 1:100 in 10 mM sodium phosphate buffer using two serial 10-fold dilutions. 70 μl of phosphate buffer, 30 μl of 30 mM βeta-galactosidase substrate ONPG (o-nitrophenyl-β-D-galactopyranoside) in 20 mM sodium phosphate buffer, 100 μl of cells in 10 mM sodium phosphate buffer and 50 μl of peptide sample were added to microtiter plate wells in duplicate. The production of ONP (o-nitrophenyl) from ONPG was measured over time using a spectrophotometer set at a wavelength of 415 nm.
Mature Lacritin (pLac) and various constructs of Lacritin were incubated with permease-deficient E. coli ML-35 at room temperature for 18 hours. The conversion of ONPG (o-nitrophenyl-β-D-galactopyranoside) to ONP (o-nitrophenyl) by cytoplasmic β-galactosidase was measured by a spectrophotometer at 415 nm. […]

[2] = topical application to the eyes of rabbits; cited from earlier work
Pseudomonas aeruginosa = assay: Colony forming unit antimicrobial assay against pathogenic bacteria (Table 3); assay type: cell-based; settings: 10 mM phosphate buffer, 3 hours
Experimental: as §1
(§2) Purified lacritin variant proteins at the concentrations shown were incubated with selected pathogenic bacteria in 10 mM phosphate buffer for 3 hours as described in the antimicrobial assay. The total number of colonies were counted and the percent cell death determined using [1-(colonies surviving peptide incubation)/(colony count from PBS control)]×100. N-XX denotes the number of amino acids removed from the N-terminal of mature lacritin.

[3] = tested on: Staphylococcus epidermidis; assay: as above; assay type: cell-based; settings: 37.6 μg/ml; 10 mM phosphate buffer, 3 hours
Experimental: as §1, §2

Staphylococcus aureus = assay: as above; assay type: cell-based; settings: 26.3 μg/ml; 10 mM phosphate buffer, 3 hours
Experimental: as §1, §2

[4] = FIG. 5, concentrations only shown in the figure
[5] = FIG. 5, concentrations only shown in the figure, PB control 161×10^3 CFU/ml

## MKSIVEKSILLTEQALAKAGKGMHGGVPGGKQFIENGSEFAQKLLKKFSLLKPWA [Construct N-65]
E. coli (ATCC #10536)
  LC50 (lethal concentration required to kill 50 percent of E. coli): 5.5 µg/mL

## MSILLTEQALAKAGKGMHGGVPGGKQFIENGSEFAQKLLKKFSLLKPWA [Construct N-71]
E. coli (ATCC #10536)
  LC50 (lethal concentration required to kill 50 percent of E. coli): 8.0 µg/mL

## N-72: mature lacritin with 72 amino acids removed from the N-terminal (ILLTEQALAKAGKGMHGGVPGGKQFIENGSEFAQKLLKKFSLLKPWA; UniProt Q9GZZ8 92-138, looked up, fragment) [Construct N-72]
E. coli (ATCC #10536)
  LC50 (lethal concentration required to kill 50 percent of E. coli): 7.5 µg/mL

## N-73: mature lacritin with 73 amino acids removed from the N-terminal (LLTEQALAKAGKGMHGGVPGGKQFIENGSEFAQKLLKKFSLLKPWA; UniProt Q9GZZ8 93-138, looked up, fragment) [Construct N-73]
E. coli (ATCC #10536)
  LC50 (lethal concentration required to kill 50 percent of E. coli): 8.0 µg/mL

## N-80: mature lacritin with 80 amino acids removed from the N-terminal (AKAGKGMHGGVPGGKQFIENGSEFAQKLLKKFSLLKPWA; UniProt Q9GZZ8 100-138, looked up, fragment) [Construct N-80]
E. coli (ATCC #10536)
  LC50 (lethal concentration required to kill 50 percent of E. coli): Not Active

B1: Lacritin: full length recombinant mature human lacritin without signal peptide, 119 amino acids, SEQ ID NO:27 (protein, listed as Homo sapiens)
chain: EDASSDSTGADPAQEAGTSKPNEEISGPAEPASPPETTTTAQETSAAAVQGTAKVTSSRQELNPLKSIVEKSILLTEQALAKAGKGMHGGVPGGKQFIENGSEFAQKLLKKFSLLKPWA
[1]
  cell growth: promotes new cell growth
E. coli; FIG. 4, 46 μg/ml, 25 mM NaCl, buffer control 77×10^3 CFU/ml
  average colony forming units: 38×10^3 CFU/ml
E. coli; FIG. 4, 46 μg/ml, buffer control 77×10^3 CFU/ml
  CFU as % of the control: 49%
E. coli (ATCC #10536)
  LC50 (lethal concentration required to kill 50 percent of E. coli): 11.0 µg/mL
E. coli ML-35
  inner membrane permeabilization (ONPG to ONP conversion, 415 nm): damage the cell membrane
[2]
  tear production: increases tear production

B2: N-35: mature lacritin with 35 amino acids removed from the N-terminal (protein, listed as Homo sapiens)
chain: METTTTAQETSAAAVQGTAKVTSSRQELNPLKSIVEKSILLTEQALAKAGKGMHGGVPGGKQFIENGSEFAQKLLKKFSLLKPWA
E. coli; [4]
  % of the bacteria killed: 84%
E. coli; [5]
  CFU as % of the control: 16%
  average colony forming units: 25×10^3 CFU/ml
E. coli (ATCC #10536)
  LC50 (lethal concentration required to kill 50 percent of E. coli): 1.5 µg/mL
Pseudomonas aeruginosa; 36.8 μg/ml
  Cell Death %: 95%
[3]
  Cell Death %: 69%

B3: N-45: mature lacritin with 45 amino acids removed from the N-terminal (protein, listed as Homo sapiens)
chain: MAAAVQGTAKVTSSRQELNPLKSIVEKSILLTEQALAKAGKGMHGGVPGGKQFIENGSEFAQKLLKKFSLLKPWA
E. coli; [4]
  % of the bacteria killed: 74%
E. coli; [5]
  CFU as % of the control: 26%
  average colony forming units: 42×10^3 CFU/ml
E. coli (ATCC #10536)
  LC50 (lethal concentration required to kill 50 percent of E. coli): 1.0 µg/mL
Pseudomonas aeruginosa; 23.0 μg/ml
  Cell Death %: 99%
Staphylococcus aureus
  Cell Death %: 58%
